What follows are binders tested against T1, HLA-B*44:05 (human) (assay: UV peptide exchange, anti-b2m ELISA).
T1 construct: also called peptide-receptive MHC class I molecule
In short: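 Peptide-receptive HLA-B*44:05 monomers after UV-induced exchange were diluted 100-fold and captured on streptavidin-coated plates for 1 h at 37 °C. Bound complexes were detected with 2 µg/ml HRP-anti-β2m (1 h, 37 °C) and TMB, read at 450 nm. β2m signal reflects peptide-stabilized complex yield.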
EDNLIHKF showed a peptide exchange yield of 20 to 50%.
With EEEDRDGHTW the peptide exchange yield was 50 to 75%.
VELEVPQL gave a peptide exchange yield of 20 to 50%.
For EDLAVHLY, the peptide exchange yield was 10 to 20%.
SEDLAVHL was tested, and the peptide exchange yield was over 75%.
REDLVGPEV was tested, and the peptide exchange yield was 50 to 75%.
With SEQNIQRANLF the peptide exchange yield was 50 to 75%.
TEFELLHQV showed a peptide exchange yield of 50 to 75%.
Binder DEIDKLTGY has a peptide exchange yield of 20 to 50%.
TENPKKFKI was tested, and the peptide exchange yield was 50 to 75%.
In the case of GEQPPEGQW, the peptide exchange yield is reported as 50 to 75%.
With SEYQDGKEF the peptide exchange yield was 20 to 50%.
VEFPATRSL showed a peptide exchange yield of 50 to 75%.
In the case of DQVTVFLHF, the peptide exchange yield is reported as 10 to 20%.
For GEPVTQPGSLL, the peptide exchange yield was 50 to 75%.
Binder AAEPLVGQRW has a peptide exchange yield of 20 to 50%.
HEIPQESL gave a peptide exchange yield of 10 to 20%.
KEFGIGDLVW was tested, and the peptide exchange yield was over 75%.
For VEEEISRHY, the peptide exchange yield was 20 to 50%.
SQYPHTHTF showed a peptide exchange yield of 50 to 75%.
Binder EEFCFSVRF has a peptide exchange yield of 50 to 75%.
AEHPDFSPCSF was tested, and the peptide exchange yield was 50 to 75%.
DELSVGRY was tested, and the peptide exchange yield was 20 to 50%.
REVSVVDIL gave a peptide exchange yield of over 75%.
TEHFLKKFF was tested, and the peptide exchange yield was 50 to 75%.
AECILSKRL showed a peptide exchange yield of 50 to 75%.
Work on DEQLLLRF yielded a peptide exchange yield of 20 to 50%.
HELALRQTV was tested, and the peptide exchange yield was over 75%.
Work on QEDEQLLLRF yielded a peptide exchange yield of 50 to 75%.
For EEWEWIQKL, the peptide exchange yield was over 75%.
With QELEQEVISL the peptide exchange yield was 50 to 75%.
In the case of MESAKETRY, the peptide exchange yield is reported as 50 to 75%.
For AETIFIVRL, the peptide exchange yield was 20 to 50%.
DEYLIPQQGFF showed a peptide exchange yield of 20 to 50%.
KEVASNSEL gave a peptide exchange yield of 50 to 75%.
AEVQIARKL showed a peptide exchange yield of 50 to 75%.
KQTEATMTF gave a peptide exchange yield of 20 to 50%.
Work on AERIMFSDL yielded a peptide exchange yield of over 75%.
In the case of EGEDAHLTQY, the peptide exchange yield is reported as 20 to 50%.
Work on GEDAHLTQY yielded a peptide exchange yield of 20 to 50%.
RELGFTEATGW was tested, and the peptide exchange yield was over 75%.
Work on AEKNRRDAETW yielded a peptide exchange yield of over 75%.
With REYEYDLKW the peptide exchange yield was over 75%.
RRHPSFKRF showed a peptide exchange yield of 10 to 20%.
YEQLLKVVTW gave a peptide exchange yield of over 75%.
EEPKIDFRVY was tested, and the peptide exchange yield was 50 to 75%.
In the case of SDDLRNVTW, the peptide exchange yield is reported as over 75%.
FELECPVKY gave a peptide exchange yield of 50 to 75%.
Work on REKDLPNYNW yielded a peptide exchange yield of over 75%.
Work on KEWEREKAVSL yielded a peptide exchange yield of 50 to 75%.
For EEINQGGRKY, the peptide exchange yield was 50 to 75%.
EMREERKF showed a peptide exchange yield of 20 to 50%.
MEQQSQEY showed a peptide exchange yield of 50 to 75%.
DEIFTNDRRW was tested, and the peptide exchange yield was 20 to 50%.
Binder IEYENQKRL has a peptide exchange yield of 20 to 50%.
With RLWPEPENW the peptide exchange yield was 20 to 50%.
In the case of TEFQQIINL, the peptide exchange yield is reported as over 75%.
SESSSFLKV showed a peptide exchange yield of 50 to 75%.
Work on YEWEPFAEV yielded a peptide exchange yield of 10 to 20%.
AENPLNIFY was tested, and the peptide exchange yield was over 75%.
Binder AENPLNIFYI has a peptide exchange yield of 50 to 75%.
REESDWHYL was tested, and the peptide exchange yield was 50 to 75%.
In the case of SETAVVNVTY, the peptide exchange yield is reported as over 75%.
QELSSIRQF showed a peptide exchange yield of 50 to 75%.
Work on AEQEIMKKV yielded a peptide exchange yield of over 75%.
With AEPPILYSEY the peptide exchange yield was 20 to 50%.
RELLDFSSW showed a peptide exchange yield of over 75%.
With SEQHSLPVF the peptide exchange yield was 50 to 75%.
With HENGVLTKF the peptide exchange yield was 20 to 50%.
Work on SEPQITVNF yielded a peptide exchange yield of 50 to 75%.
Binder SEHLFGTSY has a peptide exchange yield of 50 to 75%.
With KELEATKQYL the peptide exchange yield was 50 to 75%.
Binder SEADWLRFW has a peptide exchange yield of over 75%.
For SEGTLPYSY, the peptide exchange yield was 20 to 50%.
